Where “and” joins values, the source holds several entries; their conditions need not be identical. Equal entries are not always repeated. Where two headings read alike, the source gives them in different places.
Legend:
Assay in all cases: SPR
[1] = molecular target: Human angiostatin kringles 1–5 (K1–5) (human)
[2] = molecular target: Human angiostatin kringles 1–5 (K1–5) (human); remark: listed apart in the source
[3] = molecular target: Recombinant yeast F1-ATPase (F1-ATP synthase protein complex) (yeast) (UniProt P07251)
[4] = molecular target: Recombinant yeast F1-ATPase (F1-ATP synthase protein complex) (yeast) (UniProt P07251); remark: listed apart in the source

| Ka [1] | Kd [1] | koff [1] | kon [1] | Kd [2] [µM] | IC50 [3] [µM] | IC50 [4] [µM] | Molecule |
| --- | --- | --- | --- | --- | --- | --- | --- |
| 6.5e+06 M⁻¹ and 5.1e+06 M⁻¹ | 0.154 µM and 0.137 µM and 0.195 µM | 0.0002 s⁻¹ and 0.00019 s⁻¹ | 1300 M⁻¹ s⁻¹ and 960 M⁻¹ s⁻¹ | 0.13 to 0.237 | – | – | Recombinant yeast F1-ATPase (F1-ATP synthase protein complex) (from UniProt P07251 36-545; P00830 34-511; P38077 34-311) |
| – | – | – | – | – | 0.0118 | 0.0173 | Pigment epithelium-derived factor (PEDF), human recombinant (ligand) QNPASPPEEGSPDPDSTGALVEEEDPFFKVPVNKLAAAVSNFGYDLYRVRSSTSPTTNVLLSPLSVATALSALSLGAEQRTESIIHRALYYDLISSPDIHGTYKELLDTVTAPQKNLKSASRIVFEKKLRIKSSFVAPLEKSYGTRPRVLTGNPRLDLQEINNWVQAQMKGKLARSTKEIPDEISILLLGVAHFKGQWVTKFDSRKTSLEDFYLDEERTVRVPMMSDPKAVLRYGLDSDLSCKIAQLPLTGSMSIIFFLPLKVTQNLTLIEESLTSEFIHDIDRELKTVQAVLTVPKLKLSYEGEVTKSLQEMKLQSLFDSPDFSKITGKPIKLTQVEHRAGFEWNEDGAGTTPSPGLQPAHLTFPLDYHLNQPFIFVLRDTDTGALLFIGKILDPRGP |
